Experiments:
[1] = rats, cited from earlier work
[2] = cited from earlier work
[3] = 17-BMP after BDP administration, estimated; cited from earlier work
glucocorticoid receptor = target: T1, glucocorticoid receptor (Homo sapiens, UniProt P04150); details: as fraction of the binding affinity of dexamethasone; cited from earlier work
T1 sequence (P04150 1-777): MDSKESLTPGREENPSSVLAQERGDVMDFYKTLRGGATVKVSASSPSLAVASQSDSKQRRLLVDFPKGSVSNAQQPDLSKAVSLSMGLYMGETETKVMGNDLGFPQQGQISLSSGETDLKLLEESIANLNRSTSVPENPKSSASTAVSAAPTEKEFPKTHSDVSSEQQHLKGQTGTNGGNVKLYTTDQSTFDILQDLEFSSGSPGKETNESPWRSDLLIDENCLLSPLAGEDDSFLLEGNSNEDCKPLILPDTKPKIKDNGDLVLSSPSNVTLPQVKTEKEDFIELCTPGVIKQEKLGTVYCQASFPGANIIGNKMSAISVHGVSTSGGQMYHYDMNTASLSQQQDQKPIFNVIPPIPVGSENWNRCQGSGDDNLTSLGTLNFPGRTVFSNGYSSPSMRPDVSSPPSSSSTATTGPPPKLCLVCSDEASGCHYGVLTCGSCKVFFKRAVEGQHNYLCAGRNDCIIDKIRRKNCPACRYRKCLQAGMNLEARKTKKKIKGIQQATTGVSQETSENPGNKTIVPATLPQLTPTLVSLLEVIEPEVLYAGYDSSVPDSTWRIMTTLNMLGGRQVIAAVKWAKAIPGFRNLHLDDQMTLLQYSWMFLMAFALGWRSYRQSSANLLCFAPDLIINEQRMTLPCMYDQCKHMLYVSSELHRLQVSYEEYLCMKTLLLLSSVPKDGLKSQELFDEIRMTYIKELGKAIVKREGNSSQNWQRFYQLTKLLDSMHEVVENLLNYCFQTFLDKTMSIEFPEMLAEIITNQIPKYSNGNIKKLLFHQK

[4] = test system: dogs given high dose total body irradiation (TBI); assay: Survival of dogs after high dose TBI (GI radiation syndrome) with autologous marrow and supportive care; type: in vivo, dog; details: TBI dose giving >80% lethality; monitored up to 30 days; KGF 100 μg/kg/day iv or BDP 4 mg/day from 2 hours after TBI until GI recovery
Text: The dog is a particularly suitable animal model for studying radiations damage to epithelial tissue. […] To evaluate the response to TBI given at the high dose rate of 0.4 Gy/min or 0.7 Gy/min, treatment groups were given single-fraction 6, 7, 8 or 10 Gy TBI and received previously cryopreserved autologous marrow infusion upon completion of the TBI and standard supportive care. At doses of TBI below 8 Gy, all dogs survived. After 8 Gy TBI, 5 of 9 dogs died and after 10 Gy TBI, 9 of 9 dogs died from GI radiation syndrome. All deaths occurred between days 4 to day 6 after 10 Gy TBI. All deaths were attributable due to GI radiation toxicity with severe gut hemorrhage and intestinal crypt damage, as well as denudation of gut epithelium and focal necrosis in the intestines. Despite antibiotic treatment, blood cultures obtained near the time of death were positive for gram negative organisms in 4 dogs, consistent with entry of pathogens through the GI tract. […]
Dogs were monitored for survival up to 30 days after initiation of TBI (primary endpoint of the experiment). […] Dogs were also followed with daily CBCs until recovery and assessed for immune function recovery. […]

non-irradiated dogs = assay: rhKGF in non-irradiated dogs, necropsy of gut; type: in vivo, dog; details: rhKGF 100 μg/kg/day for 14 and 21 days
Method: Three non-irradiated dogs were given rhKGF 100 μg/kg/day for 7, 14 and 21 days, respectively. Twenty-four hours after the last dose of KGF, dogs were euthanized and underwent complete necropsy.

[5] = test system: oral mucositis after high-dose radiation; details: cited from earlier work
[6] = test system: dogs given total body irradiation (TBI); assay: Survival and hematopoietic recovery of dogs after TBI with cytokine treatment; type: in vivo, dog
Method: Supportive care consisted of the following: (a) intravenous antibiotics, ampicillin and amikacin and oral nonreabsorbable polymixin/neomycin administered without change in drug regimen until recovery of absolute neutrophil count (ANC)>1000/μL; (b) transfusions with irradiated whole blood (50 mL blood per transfusion) for platelet counts below 10,000/μL; and (c) subcutaneous fluids 20 ml/kg given daily for the first 5 days after TBI.
After TBI exposure, all dogs were treated with an oral fluoroquinolone, enrofloxacin. Core body temperature was measured at least twice daily. If fever developed or when ANC falls below <100/μL, dogs are empirically treated with the combination of intravenous third-generation cephalosporin (ceftazidime) and the aminoglycoside amikacin. Blood cultures are obtained when dogs develop fever and antibiotic treatment is adjusted based on blood culture results. If blood culture negative neutropenic fever persists for 48 hours, or if clinical condition objectively worsens, additional empiric antibiotic treatment with metronidazole and vancomycin is added. Although the new antibiotic regimen is more complicated compared with the historical treatment, it reflects improved broad spectrum coverage against gram negative, gram positive and anaerobic pathogens. Furthermore, blood transfusion support is more intensive now with larger volume of whole blood transfusion, based on body weight with 10-15 mL blood/kg/transfusion. The use of intravenous fluid support (10-30 mL/kg/day Lactated Ringers solution) is extended for at least 14 additional days until there is full recovery of oral food intake.
New supportive care measures have shown a significant improvement in survival after TBI. Following 4 Gy TBI (0.07 Gy/min, Varian Clinac 4/80 linear accelerator source), 4 of 4 dogs survived and recovered hematopoiesis with a median time to ANC and platelet recovery of 27 and 41 days, respectively. ANC recovery was defined as the first day of sustained neutrophil counts >500/μL and platelet recovery was defined as the first day of transfusion-independent sustained recovery of >40,000/μL. After 5 Gy TBI, 3 of 6 dogs survived with supportive care only. Deaths occurred at days 14, 15 and 21, respectively, after TBI and were due to neutropenic sepsis or pneumonia and not from the GI radiation syndrome. Among surviving dogs, the median time to ANC and platelet recovery was 29 and 44 days, respectively. After 6 Gy TBI, 5 of 6 dogs survived given supportive care only. One death occurred on day 22 due to neutropenic sepsis. The median time to ANC and platelet recovery was 34 and 74 days, respectively. After 7 Gy TBI and supportive care only, 5 of 6 dogs survived, with one death on day 22 due to neutropenic sepsis. […] As of Apr. 18, 2007, the remaining three dogs in this cohort remain transfusion-dependent at 66 to 95 days after TBI. […] Because of the improved survival of dogs after TBI given optimal supportive care in the current AI-066498 studies, we have not yet reached the 99% lethal dose of TBI threshold.
Although supportive care without cytokine support results in improved survival, cytokine treatment given after TBI aimed at recovery of the hematopoietic system also improves outcome and decreased the need for prolonged, intensive (and expensive) supportive care. Historical results in the dog model by our research group included studies which established that both recombinant canine (rc) and recombinant human (rh) G-CSF given after an otherwise lethal dose of 4 Gy TBI prevented death from radiation induced cytopenia. In the 1980's and early 1990's, after 4 Gy TBI and supportive care alone, only 1 of 28 dogs survived with recovery of hematopoiesis. In contrast, when G-CSF was given daily for 21 days after 4 Gy TBI, 8 of 10 dogs survived. […] These studies helped to establish the current clinical guidelines for the treatment of victims of radiation accidents. […]

Molecule: CCC(=O)O[C@]1(C(=O)CO)[C@@H](C)C[C@H]2[C@@H]3CCC4=CC(=O)C=C[C@]4(C)[C@@]3(Cl)[C@@H](O)C[C@@]21C [17-BMP, 17-beclomethasone mono-propionate]
- presence in plasma following oral administration of 3H-BDP [1]: found in the plasma
- half-life in simulated intestinal fluid [2]: 720 min
- absolute oral bioavailability [3]: 21-41%

Molecule: CCC(=O)OCC(=O)[C@@]1(O)[C@@H](C)C[C@H]2[C@@H]3CCC4=CC(=O)C=C[C@]4(C)[C@@]3(Cl)[C@@H](O)C[C@@]21C [21-BMP]
- glucocorticoid receptor binding affinity, in words (glucocorticoid receptor): no apparent affinity

Molecule: beclomethasone 17,21-dipropionate [BDP]
- survival after TBI [4]: greater than 70%
- half-life of unchanged BDP in plasma ([1]; intravenous administration of 3H-BDP): 3 to 4 min
- presence in plasma following oral administration of 3H-BDP [1]: not detected
- half-life in simulated intestinal fluid [2]: 2.1 min

B1: KGF: keratinocyte growth factor, recombinant human; binds the KGF receptor on epithelial tissues (protein, UniProt P21781 32-194, looked up)
Fibroblast growth factor 7: CNDMTPEQMATNVNCSSPERHTRSYDYMEGGDIRVRRLFCRTQWYLRIDKRGKVKGTQEMKNNYNIMEIRTVAVGIVAIKGVESEFYLAMNKEGKLYAKKECNEDCNFKELILENHYNTYASAKWTHNGGEMFVALNQKGIPVRGKKTKKEQKTAHFLPMAIT
- effect on Peyer's patches in the ileum (non-irradiated dogs): dramatic increase in the size and cellularity of Peyer's patches
- effect on villi in the jejunum (non-irradiated dogs): dramatic increase in size of villi
- survival after TBI [4]: ≥ 70%
- duration of mucositis ([5]; rhKGF 60 μg/kg/day for 3 days prior to 12 Gy fractionated TBI and 3 days after autologous PBSC infusion, placebo 10.4 days, p<0.001): 3.4 days
- incidence of febrile neutropenia ([5]; same trial, placebo 46%): 26%
- mean days of febrile neutropenia ([5]; same trial, placebo 4.6 days): 2.6 days

B2: G-CSF: cytokine granulocyte colony stimulating factor, recombinant canine or human (protein, UniProt P09919 31-207, looked up)
Granulocyte …: TPLGPASSLPQSFLLKCLEQVRKIQGDGAALQEKLVSECATYKLCHPEELVLLGHSLGIPWAPLSSCPSQALQLAGCLSQLHSGLFLYQGLLQALEGISPELGPTLDTLQLDVADFATTIWQQMEELGMAPALQPTQGAMPAFASAFQRRAGGVLVASHLQSFLEVSYRVLRHLAQP
- survival ([6]; 4 Gy TBI, G-CSF daily for 21 days, historical results, supportive care alone 1 of 28): 8 of 10
- survival ([6]; 5 Gy TBI, 10 μg/kg/day starting 2 hours after irradiation, new supportive care): 6 of 6
- survival ([6]; 5 Gy TBI, G-CSF, historical results): 3 of 10
- median time to ANC recovery ([6]; 5 Gy TBI, ANC >500/μL): 20 days
- median time to platelet recovery ([6]; 5 Gy TBI, platelets >40,000/μL): 44 days
- median time to ANC recovery ([6]; 6 Gy TBI): 26 days
- median time to platelet recovery ([6]; 6 Gy TBI): 61 days
- survival ([6]; 6 Gy TBI, G-CSF 10 μg/kg/day, FL 100 μg/kg/day): 5 of 6
